Reference: patent publication US20100184047A1, “SCREENING AND THERAPEUTIC METHOD FOR NSCLC TARGETING THE CDCA8-AURKB COMPLEX” (ONCOTHERAPY SCIENCE, INC., priority 2007, published 2010)
Numbering of substitutions follows the chain as printed. Residues, ends and D or L forms follow the SMILES beside them.

T1: 11R-CDCA8261-280
T1 chain: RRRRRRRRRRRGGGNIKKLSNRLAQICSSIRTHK

T2: CDCA8delta11
T2 chain: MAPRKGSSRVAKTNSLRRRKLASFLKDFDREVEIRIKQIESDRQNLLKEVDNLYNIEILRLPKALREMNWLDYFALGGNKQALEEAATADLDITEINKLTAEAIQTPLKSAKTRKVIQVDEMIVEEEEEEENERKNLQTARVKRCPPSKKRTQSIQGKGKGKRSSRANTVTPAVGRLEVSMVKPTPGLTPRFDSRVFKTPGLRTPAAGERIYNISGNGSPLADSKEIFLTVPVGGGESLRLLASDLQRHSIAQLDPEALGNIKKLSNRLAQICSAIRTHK

T3: CDCA8delta12
T3 chain: T2 chain with A275S, T278A

T4: CDCA8delta13
T4 chain: T2 chain with S154A, S219A, T278A

T5: CDCA8delta8
T5 chain: T2 chain with S154A, A275S

T6: CDCA8delta9
T6 chain: T2 chain with S219A, A275S

T7: full-length recombinant CDCA8 protein (wild-type, N-terminal His tag)
T7 chain: T2 chain with A275S

B1: recombinant AURKB (Catalog No. 14-489; upstate) (protein)
chain: MAQKENSYPWPYGRQTAPSGLSTLPQRVLRKEPVTPSALVLMSRSNVQPTAAPGQKVMENSSGTPDILTRHFTIDDFEIGRPLGKGKFGNVYLAREKKSHFIVALKVLFKSQIEKEGVEHQLRREIEIQAHLHHPNILRLYNYFYDRRRIYLILEYAPRGELYKELQKSCTFDEQRTATIMEELADALMYCHGKKVIHRDIKPENLLLGLKGELKIADFGWSVHAPSLRRKTMCGTLDYLPPEMIEGRMHNEKVDLWCIGVLCYELLVGNPPFESASHNETYRRIVKVDLKFPASVPMGAQDLISKLLRHNPSERLPLAQVSAHPWVRANSRRVLPPSALQSVA

Legend:
[1] = test system: MRC5 cells; assay: MTT assay with 11R-peptides on normal lung fibroblasts; type: cell-based; conditions: MRC5, normal human lung fibroblast derived; CDCA8 and AURKB hardly detectable
[2] = test system: CCD19-Lu cells; assay: Cell viability with 11R-peptides on normal lung fibroblasts; type: cell-based; conditions: normal human lung fibroblast derived, CDCA8 and AURKB hardly detectable
[3] = test system: BEAS-2B cells; assay: MTT assay with 11R-peptides on bronchial epithelia derived cells; type: cell-based; conditions: human bronchial epithelia derived, CDCA8 and AURKB hardly detectable
Experimental: LC319, SBC-5 cells and BEAS-2B cells were incubated with the 11R-peptides at the concentration of 2.5 micromoles, 5 micromoles, and 7.5 micromoles for seven days. The medium was exchanged at every 48 hours at the appropriate concentrations of each peptide and the viability of cells was evaluated by MTT assay at 7 days after the treatment. To confirm the transduction efficiency of the peptides, the 11R-CDCA8261-280 and its control peptides labeled with fluorescein isothiocyanate (FITC) at N-terminus were synthesized. Transduction of the peptides (2.5-7.5 micromoles) was monitored by fluorescence microscopic observation after a 3-hour incubation of the peptides with the cell lines at 37 degrees C.

[4] = target: T1, 11R-CDCA8261-280
[5] = target: CDCA8delta1
[6] = target: CDCA8delta10
[7] = target: T2, CDCA8delta11
[8] = target: T3, CDCA8delta12
[9] = target: T4, CDCA8delta13
[10] = target: CDCA8delta2
[11] = target: CDCA8delta3
[12] = target: CDCA8delta4
[13] = target: CDCA8delta5
[14] = target: CDCA8delta6
[15] = target: CDCA8delta7
[16] = target: T5, CDCA8delta8
[17] = target: T6, CDCA8delta9
[18] = target: T7, full-length recombinant CDCA8 protein …

Molecule	cell viability of normal cells [1]	cell viability of normal cells [2]	cell viability of normal cells [3]	phosphorylation level of rhCDCA8 by rhAURKB in in vitro kinase assay [4]	phosphorylation level in in vitro kinase assay [5]	phosphorylation level in in vitro kinase assay [6]	phosphorylation level in in vitro kinase assay [7]	phosphorylation level in in vitro kinase assay [8]	phosphorylation level in in vitro kinase assay [9]	phosphorylation level in in vitro kinase assay [10]	phosphorylation level in in vitro kinase assay [11]	phosphorylation level in in vitro kinase assay [12]	phosphorylation level in in vitro kinase assay [13]	phosphorylation level in in vitro kinase assay [14]	phosphorylation level in in vitro kinase assay [15]	phosphorylation level in in vitro kinase assay [16]	phosphorylation level in in vitro kinase assay [17]	in vitro phosphorylation ([gamma-32P] ATP kinase assay) [18]
CC[C@H](C)[C@H](NC(=O)[C@H](CC(N)=O)NC(=O)CNC(=O)CNC(=O)CNC(=O)[C@H](CCCNC(=N)N)NC(=O)[C@H](CCCNC(=N)N)NC(=O)[C@H](CCCNC(=N)N)NC(=O)[C@H](CCCNC(=N)N)NC(=O)[C@H](CCCNC(=N)N)NC(=O)[C@H](CCCNC(=N)N)NC(=O)[C@H](CCCNC(=N)N)NC(=O)[C@H](CCCNC(=N)N)NC(=O)[C@H](CCCNC(=N)N)NC(=O)[C@H](CCCNC(=N)N)NC(=O)[C@@H](N)CCCNC(=N)N)C(=O)N[C@@H](CCCCN)C(=O)N[C@@H](CCCCN)C(=O)N[C@@H](CC(C)C)C(=O)N[C@@H](CO)C(=O)N[C@@H](CC(N)=O)C(=O)N[C@@H](CCCNC(=N)N)C(=O)N[C@@H](CC(C)C)C(=O)N[C@@H](C)C(=O)N[C@@H](CCC(N)=O)C(=O)N[C@H](C(=O)N[C@@H](CS)C(=O)N[C@@H](CO)C(=O)N[C@@H](CO)C(=O)N[C@H](C(=O)N[C@@H](CCCNC(=N)N)C(=O)N[C@H](C(=O)N[C@@H](Cc1c[nH]cn1)C(=O)N[C@@H](CCCCN)C(=O)O)[C@@H](C)O)[C@@H](C)CC)[C@@H](C)CC [11R-CDCA8261-280] (H-RRRRRRRRRRRGGGNIKKLSNRLAQICSSIRTHK-OH)	no off-target effect	no effect	no significant growth suppressive effect															
B1				the phosphorylation level of rhCDCA8 was significantly suppressed by the treatment with 11R-CDCA8261-280 peptides ... compared to its scramble peptides	represented the same levels of phosphorylation compared to wild-type CDCA8	showed the same levels of phosphorylation compared with wild-type	revealed the reduction of phosphorylation levels in four mutated-constructs	revealed the reduction of phosphorylation levels in four mutated-constructs	complete disappearance of CDCA8 phosphorylation by AURKB	a reduction of phosphorylation levels was detected in three mutated constructs (CDCA8delta2, -delta5, and -delta6), as compared to a wild-type	represented the same levels of phosphorylation compared to wild-type CDCA8	represented the same levels of phosphorylation compared to wild-type CDCA8	a reduction of phosphorylation levels was detected in three mutated constructs (CDCA8delta2, -delta5, and -delta6), as compared to a wild-type	a reduction of phosphorylation levels was detected in three mutated constructs (CDCA8delta2, -delta5, and -delta6), as compared to a wild-type	showed the same levels of phosphorylation compared with wild-type	revealed the reduction of phosphorylation levels in four mutated-constructs	revealed the reduction of phosphorylation levels in four mutated-constructs	CDCA8 was phosphorylated in an AURKB-dose-dependent manner
